In patent US5851528:

Key:
[1] = biological target: C3/C5 convertases
[2] = biological target: C5 convertase (formed in human serum) (human)
[3] = biological target: C3/C5 convertases; remark: listed apart in the source

Substance | IC50, inhibition of classical pathway complement-mediated lysis of IgM-sensitized sheep RBC by human serum [1] [nM] | IC50, inhibition of C5a production in human serum (competition radioimmunoassay for C5a desArg) [2] [nM] | IC50, inhibition of alternative pathway complement-mediated lysis of unsensitized guinea pig RBC by human serum [3] [nM]
mixture of sMCP + sDAF added together on an equal molar basis (pool or library) | 200 |  | 
CAB-2 (complement activation blocker-2), recombinant chimeric protein encoded by the MCP-DAF expression vector | 30 | 300 | 100
soluble MCP (sMCP), soluble membrane cofactor protein recombinant protein (from UniProt P15529-3) | 7000 | 5000 | 350
soluble DAF (sDAF), soluble decay accelerating factor (from UniProt P08174) | 100 |  | 
